Source: patent US20250313627A1

Tests used:
[1] = molecular target: human ROR1 (Receptor Tyrosine Kinase-Like Orphan Receptor 1) on the cell surface (human) (UniProt Q01973); test: flow cytometry, B16-F10 cells expressing human ROR1 (high density)
[2] = molecular target: human ROR1 (Receptor Tyrosine Kinase-Like Orphan Receptor 1) on the cell surface (human) (UniProt Q01973); test: as above; remark: listed apart in the source
[3] = molecular target: human ROR1 (Receptor Tyrosine Kinase-Like Orphan Receptor 1) on the cell surface (human) (UniProt Q01973); test: as above; remark: listed apart in the source
[4] = molecular target: human ROR1 (Receptor Tyrosine Kinase-Like Orphan Receptor 1) on the cell surface (human) (UniProt Q01973); test: as above; remark: listed apart in the source
[5] = molecular target: human ROR1 (Receptor Tyrosine Kinase-Like Orphan Receptor 1) on the cell surface (human) (UniProt Q01973); test: as above; remark: listed apart in the source
[6] = molecular target: human ROR1 (Receptor Tyrosine Kinase-Like Orphan Receptor 1) on the cell surface (human) (UniProt Q01973); test: as above; remark: listed apart in the source
[7] = molecular target: human ROR1 (Receptor Tyrosine Kinase-Like Orphan Receptor 1) on the cell surface (human) (UniProt Q01973); test: flow cytometry, LS174T cells expressing human ROR1 (low density)
[8] = molecular target: human ROR1 (Receptor Tyrosine Kinase-Like Orphan Receptor 1) on the cell surface (human) (UniProt Q01973); test: as above; remark: listed apart in the source

Chain of human ROR1 (Receptor Tyrosine Kinase-Like Orphan Receptor 1) on the cell surface (human) (Q01973 30-937): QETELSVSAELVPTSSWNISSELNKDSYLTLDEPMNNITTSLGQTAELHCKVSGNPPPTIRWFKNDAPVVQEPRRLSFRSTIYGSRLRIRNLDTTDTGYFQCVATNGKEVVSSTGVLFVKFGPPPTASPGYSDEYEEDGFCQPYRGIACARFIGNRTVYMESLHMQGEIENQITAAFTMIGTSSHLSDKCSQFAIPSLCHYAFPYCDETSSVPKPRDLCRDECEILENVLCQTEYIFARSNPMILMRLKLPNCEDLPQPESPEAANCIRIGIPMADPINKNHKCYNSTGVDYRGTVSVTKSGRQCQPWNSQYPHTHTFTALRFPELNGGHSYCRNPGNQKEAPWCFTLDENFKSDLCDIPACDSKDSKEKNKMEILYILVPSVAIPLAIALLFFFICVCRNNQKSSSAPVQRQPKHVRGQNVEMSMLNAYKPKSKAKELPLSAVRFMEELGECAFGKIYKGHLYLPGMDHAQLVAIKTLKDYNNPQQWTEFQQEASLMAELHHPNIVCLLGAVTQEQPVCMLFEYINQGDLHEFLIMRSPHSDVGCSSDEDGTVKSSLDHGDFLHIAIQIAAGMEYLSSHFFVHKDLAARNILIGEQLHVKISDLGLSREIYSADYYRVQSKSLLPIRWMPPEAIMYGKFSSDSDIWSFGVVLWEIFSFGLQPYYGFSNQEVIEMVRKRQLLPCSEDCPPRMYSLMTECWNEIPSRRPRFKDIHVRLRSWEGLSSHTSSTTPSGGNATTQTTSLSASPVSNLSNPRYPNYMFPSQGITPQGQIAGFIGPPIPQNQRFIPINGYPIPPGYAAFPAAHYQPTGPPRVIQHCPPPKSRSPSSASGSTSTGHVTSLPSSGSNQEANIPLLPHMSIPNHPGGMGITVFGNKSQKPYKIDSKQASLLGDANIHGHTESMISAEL

Substance	MFI [1]	MFI [2]	MFI [3]	MFI [4]	MFI [5]	MFI [6]	MFI [7]	MFI [8]
Hen Egg Lysozyme (HEL)-specific antibody	13.3	3.86	1140	6.85	9.86	12.1		
Human IgG1 (antibody)							316	30.8
goat anti human IgG-Fc specific PE secondary antibody, alone	9.92	3.01	125	4.45	5.67	15.5	45.3	22.6
mIgG-PE (PE labeled mouse IgG Ab) (antibody)	6.53	2.08	94.6	4.31	6.1	4.36	54	23.2
